# In publication PMC3839853 (FEBS Open Bio, 2013):
# B1: Recombinant wild-type Phanerochaete chrysosporium pyranose 2-oxidase (PcP2O_(RECWT)), full-length residues 1-621 with N-terminal T7-epitope tag and C-terminal … (enzyme, UniProt Q6QWR1 10-621, looked up)
# chain: ADEPYDVFIAGSGPIGATFAKLCVDANLRVCMVEIGAADSFTSKPMKGDPNAPRSVQFGPGQVPIPGYHKKNEIEYQKDIDRFVNVIKGALSTCSIPTSNNHIATLDPSVVSNSLDKPFISLGKNPAQNPFVNLGAEAVTRGVGGMSTHWTCATPEFFAPADFNAPHRERPKLSTDAAEDARIWKDLYAQAKEIIGTSTTEFDHSIRHNLVLRKYNDIFQKENVIREFSPLPLACHRLTDPDYVEWHATDRILEELFTDPVKRGRFTLLTNHRCTKLVFKHYRPGEENEVDYALVEDLLPHMQNPGNPASVKKIYARSYVVACGAVATAQVLANSHIPPDDVVIPFPGGEKGSGGGERDATIPTPLMPMLGKYITEQPMTFCQVVLDSSLMEVVRNPPWPGLDWWKEKVARHVEAFPNDPIPIPFRDPEPQVTIKFTEEHPWHVQIHRDAFSYGAVAENMDTRVIVDYRFFGYTEPQEANELVFQQHYRDAYDMPQPTFKFTMSQDDRARARRMMDDMCNIALKIGGYLPGSEPQFMTPGLALHLAGTTRCGLDTQKTVGNTHCKVHNFNNLYVGGNGVIETGFAANPTLTSICYAIRASNDIIAKFGRHRG
# Target: the molecule itself
# Assay: crystal structure
protein,measurement,value
B1,stoichiometry N,4
